Experimental data from publication PMC10189407 (The Journal of Biological Chemistry, 2023).

B1: crenezumab G33S(HC)-NEP fusion, IgG-CTF-2 format (antibody, V domains shown)
VH: EVQLVESGGGLVQPGGSLRLSCAASGFTFSSYSMSWVRQAPGKGLELVASINSNGGSTYYPDSVKGRFTISRDNAKNSLYLQMNSLRAEDTAVYYCASGDYWGQGTTVTVSS
VL: DIVMTQSPLSLPVTPGEPASISCRSSQSLVYSNGDTYLHWYLQKPGQSPQLLIYKVSNRFSGVPDRFSGSGSGTDFTLKISRVEAEDVGVYYCSQSTHVPWTFGQGTKVEIK
B2: crenezumab G33S(HC)/S56F(LC)-NEP fusion, IgG-CTF-2 format (antibody, V domains shown)
VH: EVQLVESGGGLVQPGGSLRLSCAASGFTFSSYSMSWVRQAPGKGLELVASINSNGGSTYYPDSVKGRFTISRDNAKNSLYLQMNSLRAEDTAVYYCASGDYWGQGTTVTVSS
VL: DIVMTQSPLSLPVTPGEPASISCRSSQSLVYSNGDTYLHWYLQKPGQSPQLLIYKVSNRFFGVPDRFSGSGSGTDFTLKISRVEAEDVGVYYCSQSTHVPWTFGQGTKVEIK

Molecular target: Aβ(1–28) (Homo sapiens (assumed), UniProt P05067)
Assay: SPR

Aβ(1–28), sequence (P05067 672-699): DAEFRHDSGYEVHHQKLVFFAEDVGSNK

binding result	Binder
binds	B1
binds	B2
